As a reminder, the Kd is a measure of binding affinity in units of concentration.

In data set [1] the target is CST g4.1 (negative control mutant) (human, UniProt Q2NKJ3;Q9H668;Q86WV5 1-1217;1-368;1-123, R744E;CTC1:K743E). Description: fluorescence anisotropy.
Data set [2] has as its target T1, CST g1.1 (human, UniProt Q2NKJ3;Q9H668;Q86WV5 1-1217;1-368;1-123, E951K;CTC1:Y949A). The data set is described as follows: fluorescence anisotropy. Background: Polarisation of emitted light reports the rotation of a fluorescent probe.
Data set [3] has as its target T2, CST g3.1 (human, UniProt Q2NKJ3;Q9H668;Q86WV5 1-1217;1-368;1-123, K1167E;CTC1:K1164E). Description: fluorescence anisotropy.
For data set [4], the target named is T3, CST g2.1 (human, UniProt Q2NKJ3;Q9H668;Q86WV5 1-1217;1-368;1-123, N981D;Y983A;CTC1:R978E). Description: fluorescence anisotropy.
For data set [5], the target named is T2, CST g3.1. The data set is described as follows: EMSA. (A gel shift assay detects complexes by their altered migration in electrophoresis.)
The target of data set [6] is T3, CST g2.1. The data set is described as follows: EMSA.
Data set [7] has as its target T1, CST g1.1. Description: EMSA.

T1 sequence (Q2NKJ3 whole entry E951K, chain 1 of 3): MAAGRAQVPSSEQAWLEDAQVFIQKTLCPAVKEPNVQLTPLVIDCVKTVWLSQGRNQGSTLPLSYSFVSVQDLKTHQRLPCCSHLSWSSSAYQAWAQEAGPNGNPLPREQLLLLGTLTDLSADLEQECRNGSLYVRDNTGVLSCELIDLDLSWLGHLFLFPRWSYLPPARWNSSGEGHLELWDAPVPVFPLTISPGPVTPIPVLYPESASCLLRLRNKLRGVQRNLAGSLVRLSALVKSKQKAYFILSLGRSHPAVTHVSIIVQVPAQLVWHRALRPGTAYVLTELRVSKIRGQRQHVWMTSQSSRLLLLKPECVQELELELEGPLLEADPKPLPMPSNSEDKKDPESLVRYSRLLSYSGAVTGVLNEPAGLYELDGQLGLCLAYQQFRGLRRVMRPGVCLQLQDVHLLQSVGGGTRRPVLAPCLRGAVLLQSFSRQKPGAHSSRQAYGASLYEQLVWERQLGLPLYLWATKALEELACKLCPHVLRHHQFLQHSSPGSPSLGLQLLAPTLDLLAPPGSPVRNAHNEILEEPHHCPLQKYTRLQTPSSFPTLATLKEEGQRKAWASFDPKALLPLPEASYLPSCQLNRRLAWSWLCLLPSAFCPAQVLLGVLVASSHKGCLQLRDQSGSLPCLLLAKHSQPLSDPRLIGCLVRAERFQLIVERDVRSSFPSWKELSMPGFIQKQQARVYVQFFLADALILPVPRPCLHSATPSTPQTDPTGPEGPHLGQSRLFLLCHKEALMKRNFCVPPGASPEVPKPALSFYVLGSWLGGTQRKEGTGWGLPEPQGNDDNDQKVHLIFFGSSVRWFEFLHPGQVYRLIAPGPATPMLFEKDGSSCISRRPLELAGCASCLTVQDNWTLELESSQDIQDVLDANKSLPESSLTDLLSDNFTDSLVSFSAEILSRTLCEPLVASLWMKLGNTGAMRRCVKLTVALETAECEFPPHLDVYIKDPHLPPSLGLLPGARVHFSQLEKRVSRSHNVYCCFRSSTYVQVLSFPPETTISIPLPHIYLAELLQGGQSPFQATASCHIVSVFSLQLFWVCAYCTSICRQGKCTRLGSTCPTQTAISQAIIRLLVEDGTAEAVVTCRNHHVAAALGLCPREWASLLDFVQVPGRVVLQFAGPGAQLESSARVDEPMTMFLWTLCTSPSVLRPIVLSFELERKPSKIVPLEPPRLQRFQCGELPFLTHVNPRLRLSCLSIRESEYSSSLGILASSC
T1 sequence (Q9H668 whole entry, stated change not applied, chain 2 of 3): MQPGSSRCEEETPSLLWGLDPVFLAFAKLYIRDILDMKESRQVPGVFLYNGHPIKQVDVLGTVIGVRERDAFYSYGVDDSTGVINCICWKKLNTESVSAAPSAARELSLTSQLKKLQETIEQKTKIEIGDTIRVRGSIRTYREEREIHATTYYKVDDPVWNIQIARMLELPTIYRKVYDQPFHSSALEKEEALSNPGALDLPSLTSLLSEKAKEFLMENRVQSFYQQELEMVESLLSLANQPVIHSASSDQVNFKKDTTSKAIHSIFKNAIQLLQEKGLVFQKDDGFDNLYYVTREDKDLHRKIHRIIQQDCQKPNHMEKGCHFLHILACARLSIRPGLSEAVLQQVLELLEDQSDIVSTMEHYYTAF
T1 sequence (Q86WV5 whole entry, stated change not applied, chain 3 of 3): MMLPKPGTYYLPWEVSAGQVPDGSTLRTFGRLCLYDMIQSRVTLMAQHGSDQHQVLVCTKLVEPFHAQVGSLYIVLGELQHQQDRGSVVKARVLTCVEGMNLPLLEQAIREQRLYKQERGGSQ
T3 sequence (Q2NKJ3 whole entry N981D/Y983A, chain 1 of 3): as the sequence (Q2NKJ3 whole entry E951K, chain 1 of 3) above, with K951E, N981D, Y983A counted along it
T3 sequence (Q9H668 whole entry, stated change not applied, chain 2 of 3): as the sequence (Q9H668 whole entry, stated change not applied, chain 2 of 3) above
T3 sequence (Q86WV5 whole entry, stated change not applied, chain 3 of 3): as the sequence (Q86WV5 whole entry, stated change not applied, chain 3 of 3) above
T2 sequence (Q2NKJ3 whole entry K1167E, chain 1 of 3): as the sequence (Q2NKJ3 whole entry E951K, chain 1 of 3) above, with K951E, K1167E counted along it
T2 sequence (Q9H668 whole entry, stated change not applied, chain 2 of 3): as the sequence (Q9H668 whole entry, stated change not applied, chain 2 of 3) above
T2 sequence (Q86WV5 whole entry, stated change not applied, chain 3 of 3): as the sequence (Q86WV5 whole entry, stated change not applied, chain 3 of 3) above
CST g4.1 (negative control mutant), sequence (Q2NKJ3 whole entry R744E, chain 1 of 3): as the sequence (Q2NKJ3 whole entry E951K, chain 1 of 3) above, with R744E, K951E counted along it
CST g4.1 (negative control mutant), sequence (Q9H668 whole entry, stated change not applied, chain 2 of 3): as the sequence (Q9H668 whole entry, stated change not applied, chain 2 of 3) above
CST g4.1 (negative control mutant), sequence (Q86WV5 whole entry, stated change not applied, chain 3 of 3): as the sequence (Q86WV5 whole entry, stated change not applied, chain 3 of 3) above

For the molecule TTAGGGTTAGGGTTAGGG (ssDNA) [3xTEL (FP)], the Kd in data set [1] is 0.002 ± 0.00016 µM; in data set [2], around 0.52 µM; in data set [3] it was around 0.42 µM; in data set [4], around 0.8 µM.

For the molecule TTAGGGTTAGGGTTAGGG (ssDNA) [3xTEL (EMSA)], the Kd was 0.097 ± 0.027 µM in data set [5], 0.21 ± 0.106 µM in data set [6] and 0.133 ± 0.073 µM in data set [7].

Values taken from paper PMC8599947.
